Reference: patent US20040259165A1 (published 2004)

Target: T1, DsRed fused to the Gal4 DNA binding domain (pGBT9) (Discosoma species)
T1 construct: range 1-147; also called DsRed-prey
Test: yeast two hybrid in HF7C (HIS3 and LacZ reporters)
Protocol: Yeast two hybrid assays were also performed. […] Alternatively, the yeast were grown on filters placed on plates lacking tryptophan and leucine to select for the bait and prey plasmids. After overnight growth, the filters were removed from the plates, frozen in liquid nitrogen, thawed, and incubated in X-gal overnight at 30° C. and two days at 4° C. to test for β-galactosidase activity (assayed by blue color development).

B1: DsRed fused to the Gal4 activation domain (pGAD GH) (other)
chain: ANFNQSGNIADSSLSFTFTNSSNGPNLITTQTNSQALSQPIASSNVHDNFMNNEITASKIDDGNNSKPLSPGWTDQTAYNAFGITTGMFNTTTMDDVYNYLFDDEDTPPNPKKEMRSSKNVIKEFMRFKVRMEGTVNGHEFEIEGEGEGRPYEGHNTVKLKVTKGGPLPFAWDILSPQFQYGSKVYVKHPADIPDYKKLSFPEGFKWERVMNFEDGGVVTVTQDSSLQDGCFIYKVKFIGVNFPSDGPVMQKKTMGWEASTERLYPRDGVLKGEIHKALKLKDGGHYLVEFKSIYMAKKPVQLPGYYYVDSKLDITSHNEDYTIVEQYERTEGRHHLFL
notes: range 768-881; also called DsRed-bait
B1: binds.
